Several values for one entry are separate records, joined by “and”; a condition that tells them apart may be missing. Equal entries are not always repeated.
How the values were obtained:
D1-D2 Her2-Fc = target: T1, D1-D2 Her2-Fc; assay: ELISA, HER2 domain-Fc captured on anti-huFc, detection HRP-anti-fab
T1 construct: also called MR067; ErbB2-Fc Domains 1-2; not shown: huIgG1-Fc part
T1 chain: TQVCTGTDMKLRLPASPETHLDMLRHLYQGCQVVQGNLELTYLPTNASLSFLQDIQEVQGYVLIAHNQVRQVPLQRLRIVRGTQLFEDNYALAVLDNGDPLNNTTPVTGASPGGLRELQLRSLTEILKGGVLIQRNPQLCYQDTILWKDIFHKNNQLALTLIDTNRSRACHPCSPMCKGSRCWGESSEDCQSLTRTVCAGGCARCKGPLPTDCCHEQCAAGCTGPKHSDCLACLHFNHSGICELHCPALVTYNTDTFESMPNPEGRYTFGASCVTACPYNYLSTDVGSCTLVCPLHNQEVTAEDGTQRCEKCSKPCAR
Protocol: (§1) Nunc Maxisorp ELISA plates were coated with 5 ug/ml rabbit pAbs anti-human Fc gamma in PBS overnight at 4 degrees. Plates were washed one time with PBST (PBS, 0.05% tween 20) and blocked with 1% BSA in PBS for one hour at room temperature. Plates were washed one time with PBST and incubated with 1 ug/ml HER2-Fc fusion protein for one hour. Plates were washed three times with PBST and dilutions of Fab (four 5-fold serial dilutions, starting at 1 ug/ml) in block were added and incubated for ninety minutes. Plates were washed three times with PBST and incubated with 1:2,000 HRP-labelled goat anti-human kappa (Southern Biotech cat#2060-05) and HRP-labelled goat anti-human lambda (Southern Biotech cat#2070-05) in block for one hour at room temperature. Plates were washed three times with PBST, developed with TMB solution for 5 minutes, and stopped with equal volume 1 NH₂SO₄. Absorbance values were read at 450 nm.

D1 Her2-Fc = target: T2, D1 Her2-Fc; assay: as above
T2 construct: also called MR066; ErbB2-Fc Domain 1; not shown: huIgG1-Fc part
T2 chain: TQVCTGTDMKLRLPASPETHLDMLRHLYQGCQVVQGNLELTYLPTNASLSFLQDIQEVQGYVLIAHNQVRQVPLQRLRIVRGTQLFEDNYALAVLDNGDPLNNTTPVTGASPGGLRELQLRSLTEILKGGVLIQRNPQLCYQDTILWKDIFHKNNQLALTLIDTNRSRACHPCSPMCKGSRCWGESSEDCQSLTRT
Protocol: as §1

[1] = target: Soluble human LTBR (shuLTBR) (human, UniProt P36941 31-227, limits assumed); assay: SEC / light scattering
Soluble human LTBR (shuLTBR), sequence (P36941 31-227 limits assumed): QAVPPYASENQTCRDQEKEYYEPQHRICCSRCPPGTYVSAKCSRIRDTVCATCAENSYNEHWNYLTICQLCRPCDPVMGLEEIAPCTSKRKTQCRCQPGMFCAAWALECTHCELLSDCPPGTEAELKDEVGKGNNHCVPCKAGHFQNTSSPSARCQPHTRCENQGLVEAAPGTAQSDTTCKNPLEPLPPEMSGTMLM
Protocol: Soluble human LTBR (shuLTBR) was prepared by limited proteolytic digestion of human LTBR-Ig and purified by chromatography on protein A Sepharose and Fractogel TMAE. […] Controls with each protein were also included. The samples were analyzed by SEC using a […] column (Phenomenex) in PBS with a Waters Alliance HPLC instrument.

B1: BIIB66A12 Fab (Fab, V domains shown)
VH: EVQLLESGGGLVQPGGSLRLSCAASGFTFSMYSMQWVRQAPGKGLEWVSVIGSSGGQTGYADSVKGRFTISRDNSKNTLYLQMNSLRAEDTAVYYCARVRDYYGSGSYYLDPWGQGTLVTVSS
VL: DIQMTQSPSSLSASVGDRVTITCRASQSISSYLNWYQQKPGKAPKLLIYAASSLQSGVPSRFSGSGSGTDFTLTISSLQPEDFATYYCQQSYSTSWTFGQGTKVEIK
notes: Soluble human Fab from a phagemid Fab library
binding result (D1-D2 Her2-Fc): no binding (tested: 1 ug/ml (from paragraph 380, not on the sheet))
binding result (D1 Her2-Fc): no binding (tested: 1 ug/ml (from paragraph 380, not on the sheet))

B2: BIIB66C01 Fab (Fab, V domains shown)
VH: EVQLLESGGGLVQPGGSLRLSCAASGFTFSWYSMSWVRQAPGKGLEWVSSISSSGGPTHYADSVKGRFTISRDNSKNTLYLQMNSLRAEDTAVYYCARDSSYSGTSWGQGTLVTVSS
VL: QYELTQPPSVSGTPGQRVTISCSGSSSNIGSEYVYWFQQLPGTAPRLLIYRNDQRPSGVPDRFSGSKSGTSASLAISGLRSEDETDYYCTTWDDSLSGPVFGGGTKLTVL
notes: as for B1
binding result (D1-D2 Her2-Fc): no binding (tested: 1 ug/ml (from paragraph 380, not on the sheet))
binding result (D1 Her2-Fc): no binding (tested: 1 ug/ml (from paragraph 380, not on the sheet))

B3: 71F10 Fab-hLIGHT fusion with the (G4S)4 linker (BIIB71F10-132) (other)
heavy: EVQLLESGGGLVQPGGSLRLSCAASGFTFSSYGMVWVRQAPGKGLEWVSSISSSGGLTWYADSVKGRFTISRDNSKNTLYLQMNSLRAEDTAVYYCASPPGIAVARDYWGQGTLVTVSSASTKGPSVFPLAPSSKSTSGGTAALGCLVKDYFPEPVTVSWNSGALTSGVHTFPAVLQSSGLYSLSSVVTVPSSSLGTQTYICNVNHKPSNTKVDKKVEPKSCDKGGGGSGGGGSGGGGSGGGGSNPAAHLTGANSSLTGSGGPLLWETQLGLAFLRGLSYHDGALVVTKAGYYYIYSKVQLGGVGCPLGLASTITHGLYKRTPRYPEELELLVSQQSPCGRATSSSRVWWDSSFLGGVVHLEAGEEVVVRVLDERLVRLRDGTRSYFGAFMV
light: DIQMTQSPSSLSASVGDRVTITCRASQGISNYLAWYQQKPGKVPKLLIYAASTLQSGVPSRFSGSGSGTDFTLTISSLQPEDVATYYCQKYNSALLTFGGGTKVEIKRTVAAPSVFIFPPSDEQLKSGTASVVCLLNNFYPREAKVQWKVDNALQSGNSQESVTEQDSKDSTYSLSSTLTLSKADYEKHKVYACEVTHQGLSSPVTKSFNRGEC
notes: Fab heavy chain fused to human LIGHT extracellular portion; assembles as a trimer; also called 71F10 Fab-(G4S)4-LIGHT
stoichiometry (shuLTBR per Fab-Light trimer) [1]: 2 shuLTBR per trimer and 3 shuLTBR per trimer

B4: BIIB71F10 Fab (Fab, V domains shown)
VH: EVQLLESGGGLVQPGGSLRLSCAASGFTFSSYGMVWVRQAPGKGLEWVSSISSSGGLTWYADSVKGRFTISRDNSKNTLYLQMNSLRAEDTAVYYCASPPGIAVARDYWGQGTLVTVSS
VL: DIQMTQSPSSLSASVGDRVTITCRASQGISNYLAWYQQKPGKVPKLLIYAASTLQSGVPSRFSGSGSGTDFTLTISSLQPEDVATYYCQKYNSALLTFGGGTKVEIK
notes: Soluble human Fab; also called Fab 71F10
binding result (D1 Her2-Fc): no binding (tested: 1 ug/ml (from paragraph 380, not on the sheet))

B5: BIIB65C10 Fab (Fab, V domains shown)
VH: EVQLLESGGGLVQPGGSLRLSCAASGFTFSYYPMMWVRQAPGKGLEWVSSIWPSGGFTKYADSVKGRFTISRDNSKNTLYLQMNSLRAEDTATYYCARVSSSSWYGYLYWGQGTLVTVSS
VL: not shown
notes: as for B1
binding result (D1 Her2-Fc): no binding (tested: 1 ug/ml (from paragraph 380, not on the sheet))

B6: BIIB65H09 Fab (Fab, V domains shown)
VH: EVQLLESGGGLVQPGGSLRLSCAASGFTFSWYSMWWVRQAPGKGLEWVSSIVSSGGQTRYADSVKGRFTISRDNSKNTLYLQMNSLRAEDTAVYYCARVKGYYYYIDVWGKGTTVTVSS
VL: DIQMTQSPGTLSLSPGERATLSCRASQSVDSSYLSWYQQKPGQAPRLLIYGASTRATGIPARFSGSGSGTDFTLTVSRLEPEDFAVYYCQQHGYSSRTFGQGTKVEIK
notes: as for B1
binding result (D1-D2 Her2-Fc): no binding (tested: 1 ug/ml (from paragraph 380, not on the sheet))
binding result (D1 Her2-Fc): no binding (tested: 1 ug/ml (from paragraph 380, not on the sheet))

B7: BIIB65B03 Fab (Fab, V domains shown)
VH: EVQLLESGGGLVQPGGSLRLSCAASGFTFSWYRMNWVRQAPGKGLEWVSSIYSSGGPTNYADSVKGRFTISRDNSQNTLYLQMNSLRAEDTAVYYCTREKPDYYDSSGYLDYWGQGTLVTVSS
VL: DIQMTQSPGTLSLSPGERSTLSCRASQSVSSSYLAWYQQKPGQAPRLLIYGASSRATGIPDRFSGSGSGTDFTLTISRLEPEDFGVYYCHQYGRPPVFGPGTKVDIK
notes: as for B1
binding result (D1-D2 Her2-Fc): no binding (tested: 1 ug/ml (from paragraph 380, not on the sheet))
binding result (D1 Her2-Fc): no binding (tested: 1 ug/ml (from paragraph 380, not on the sheet))
